The results in this text go back to patent US20190040151A1.

The target in test [1] is HER2 on the surface of N87 (NCI-N87) human gastric carcinoma cells (human) (UniProt P04626). As to the kind of experiment: cell-based or functional assay.
The target of test [2] is HER2-ECD (human epidermal growth factor receptor 2-extracellular domain) (human) (UniProt P04626).

Turning to “IgG1(trastuzumab)-AL1-PE38KDEL (antibody)”, the IC50 (pM), cytotoxicity on N87 cells (WST-1) in test [1] was found to be 498 pM.
On to scFv(trastuzumab)-PE38KDEL, for which, in test [2], the EC50 was determined as 0.15 nM.

In general, EC50 refers to the midpoint of the concentration-response curve. A high value points to weaker potency.
